Experimental data from US6576455B1, “Structure-based designed herbicide resistant products” (priority 1995, dated 2003).

Key:
Maize AHAS = target: T1, Maize AHAS (Zea mays, UniProt Q41769); assay: Enzymatic activity and cofactor dependence of purified maize AHAS expressed from pAC751; assay type: biochemical
T1 construct: residue #2 corresponds to the putative amino terminus of the mature protein, i.e., after removal of a chloroplast targeting peptide; GST (glutathione S-transferase, pGEX-2T) (N, cleaved yes); made in house; host or cells: E. coli (DH5α), pGEX-2T vector pAC751
T1 sequence (Q41769 40-638): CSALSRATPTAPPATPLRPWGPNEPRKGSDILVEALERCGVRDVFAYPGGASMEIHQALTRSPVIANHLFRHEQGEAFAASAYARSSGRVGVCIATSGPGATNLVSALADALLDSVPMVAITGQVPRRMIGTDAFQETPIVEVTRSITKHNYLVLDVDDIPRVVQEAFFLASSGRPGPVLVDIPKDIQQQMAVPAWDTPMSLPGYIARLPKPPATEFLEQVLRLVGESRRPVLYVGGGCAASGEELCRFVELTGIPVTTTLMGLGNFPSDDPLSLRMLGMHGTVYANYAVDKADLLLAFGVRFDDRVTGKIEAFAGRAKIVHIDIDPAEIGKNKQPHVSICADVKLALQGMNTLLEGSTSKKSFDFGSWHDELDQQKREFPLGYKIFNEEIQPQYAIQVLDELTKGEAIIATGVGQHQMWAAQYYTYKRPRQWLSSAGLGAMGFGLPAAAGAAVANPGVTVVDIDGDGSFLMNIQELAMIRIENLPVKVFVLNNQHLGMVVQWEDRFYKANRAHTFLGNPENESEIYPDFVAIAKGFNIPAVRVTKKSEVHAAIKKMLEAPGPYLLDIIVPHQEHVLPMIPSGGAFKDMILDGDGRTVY
Procedure: E. coli (DH5α) cells transformed with the pGEX-2T vector containing either the maize wild type AHAS gene (vector designation pAC751), the Arabidopsis Ser653Asn mutant, or the Arabidopsis Ile401Phe mutant were grown overnight in LB broth containing 50 μg/mL ampicillin. The overnight culture of E. coli was diluted 1:10 in 1 L LB, 50 μg/mL ampicillin, and 0.1% v/v antifoam A. The culture was incubated at 37° C. with shaking until the OD600 reached approximately 0.8. Isopropylthiogalactose (IPTG) was added to a final concentration of 1 mM and the culture was incubated for 3 more hours.
Cells were harvested by centrifugation at 8,670×g for 10 minutes in a JA-10 rotor and resuspended in 1/100th of the original culture volume in MTPBS (16 mM Na2HPO4, 4 mM NaH2PO4, 150 mM NaCl, pH 7.3). Triton X-100 and lysozyme were added to a final concentration of 1% v/v and 100 μg/mL, respectively. Cells were incubated at 30° C. for 15 minutes cooled to 4° C. on ice, and were lysed by sonication for 10 seconds at level 7 with a Branson Sonifier Cell Disrupter equipped with a microtip probe. The cell free extract was centrifuged at 35,000×g for 10 min. at 4° C. The supernatant was decanted and the centrifugation step was repeated.
Purification of expressed fusion proteins was performed as modified from Smith and Johnson (Gene 67:31-40, 1988). […]

[1] = assay type: physicochemical, Zea mays
Procedure: The fusion protein was digested overnight at room temperature. Digested samples were dialyzed against MTPBS and passed twice through a glutathione-agarose column equilibrated in MTPBS to remove the released glutathione transferase protein. […] The concentrated sample was loaded onto a 1.5×95 cm Sephacryl S-100 gel filtration column equilibrated in gel filtration buffer (50 mM HEPES, 150 mM NaCl, pH 7.0). Two mL fractions were collected at a flow rate of 0.14 mL/min. Enzyme stability was tested by storage of the enzyme at 4° C. in gel filtration buffer with the addition of 0.02% sodium azide and in the presence or absence of 2 mM thiamine pyrophosphate and 100 μM flavin adenine dinucleotide (FAD).
Maize AHAS expressed and purified from pAC751 as described in Example 3 above is active in the conversion of pyruvate to acetolactate. Full AHAS activity is dependent on the presence of the cofactors FAD and TPP in the assay medium. […] The activity of the purified enzyme with TPP only, or with no cofactors, was less than 1% of the activity detected in the presence of both TPP and FAD. Normally, AHAS present in crude plant extracts is very labile, particularly in the absence of substrate and cofactors.

Arabidopsis AHAS protein [2] = conditions: no herbicide; for Specific Activity: b134 expresses specific activity as units/mg pure AHAS, 1 unit = 1 μmole acetolactate produced/hour; for % Catalytic Activity as Compared to Wild Type: relative to wild-type AHAS
Procedure: (a) specific or catalytic activity for conversion of pyruvate to acetolactate (expressed as units/mg pure AHAS, wherein a unit of activity is defined as 1 μmole acetolactate produced/hour), or for condensation of pyruvate and 2-ketobutyrate to form acetohydroxybutyrate (expressed as units/mg pure AHAS, wherein a unit of activity is defined as 1μ mole acetohydroxybutyrate produced/hr.;
(§1) The enzymatic properties of wild-type and variant AHAS produced in E. coli were measured by a modification of the method of Singh et al. (Anal. Biochem […]:173-179, 1988) as follows:
(§2) A reaction mixture containing 1× AHAS assay buffer (50 mM HEPES pH 7.0, 100 mM pyruvate, 10 mM MgCl2, 1 mM thiamine pyrophosphate (TPP), and 50 μM flavin adenine dinucleotide (FAD)) was obtained either by dilution of enzyme in 2× assay buffer or by addition of concentrated enzyme to 1× AHAS assay buffer. All assays containing imazethapyr and associated controls contained a final concentration of 5% DMSO due to addition of imazethapyr to assay mixtures as a 50% DMSO solution. Assays were performed in a final volume of 250 μL at 37° C. in microtiter plates. After allowing the reaction to proceed for 60 minutes, acetolactate accumulation was measured […] as described by Singh et al., Anal. Biochem 171:173-179, 1988.

Arabidopsis AHAS protein [3] = conditions: increasing concentrations of imazethapyr, 5% DMSO; FIGS. 7, 9, 10, 11
Procedure: as §1, §2

tobacco plants = assay: Spraying of transformed tobacco plants with imazethapyr; assay type: in vivo, Nicotiana tabacum cv. Wisconsin 38; conditions: twice the field rate (100 g/ha) of imazethapyr
Procedure: Leaf disc transformation of Nicotiana tabacum cv. Wisconsin 38 was performed as described by Horsch et al. (Science, 227: 1229-1231, 1985) with slight modifications. Leaf discs were cut from plants grown under sterile conditions and co-cultivated upsidedown in Murashige Skoog media (Sigma Chemical Co., St. Louis, Mo.) for 2-3 days at 25° C. in darkness with Agrobacterium tumefaciens strains containing plasmids pJK002, pJK003, or pJK004. The discs were blotted dry and transferred to regeneration Murashige Skoog medium with B5 vitamins containing 1 mg/L benzyladenine and 0.1 mg/l 1-Napthyl Acetic Acid, 100 mg/L kanamycin, and 500 mg/L cefotaxime (all obtained from Sigma).
Kanamycin-resistant tobacco shoots were transferred to medium containing a 0.25 μM imazethapyr.

B1: Maize AHAS: wild type maize AHAS expressed from pAC751 in E. coli and purified, 65 kD (SEQ ID NO:1) (protein)
chain: GSAASPAMPMAPPATPLRPWGPTDPRKGADILVESLERCGVRDVFAYPGGASMEIHQALTRSPVIANHLFRHEQGEAFAASGYARSSGRVGVCIATSGPGATNLVSALADALLDSVPMVAITGQVPRRMIGTDAFQETPIVEVTRSITKHNYLVLDVDDIPRVVQEAFFLASSGRPGPVLVDIPKDIQQQMAVPVWDKPMSLPGYIARLPKPPATELLEQVLRLVGESRRPVLYVGGGCARSGEELRRFVELTGIPVTTTLMGLGNFPSDDPLSLRMLGMHGTVYANYAVDKADLLLALGVRFDDRVTGKIEAFASRAKIVHVDIDPAEIGKNKQPHVSICADVKLALQGMNALLEGSTSKKSFDFGSWNDELDQQKREFPLGYKYSNEEIQPQYAIQVLDELTKGEAIIGTGVGQHQMWAAQYYTYKRPRQWLSSAGLGAMGFGLPAAAGASVANPGVTVVDIDGDGSFLMNVQELAMIRIENLPVKVFVLNNQHLGMVVQWEDRFYKANRAHTYLGNPENESEIYPDFVTIAKGFNIPAVRVTKKNEVRAAIKKMLETPGPYLLDIIVPHQEHVLPMIPSGGAFKDMILDGDGRTVY
modifications: Zea Mays
Q: Which “AHAS activity when only FAD was added to the assay medium” value (Maize AHAS; FAD only, no TPP) does the source give for B1 here?
A: No activity was detected

Q: And the “activity with TPP only, or with no cofactors, relative to activity in the presence of both TPP and FAD” value (Maize AHAS; TPP only or no cofactors)?
A: less than 1%

Q: What about the “degradation products in SDS-PAGE gels after storage” value [1] of the same molecule?
A: no degradation products were visible

Q: And the “catalytic activity after storage” value ([1]; one month at 4° C. in 50 mm HEPES pH 7.0, 150 mM NaCl, 0.02% NaN3, presence or absence of FAD and TPP)?
A: no lose in catalytic activity

B2: Met124Ile: Arabidopsis AHAS variant (and gene) with Met124Ile mutation, corresponding to maize Met53Ile; vector pJK002 (protein, UniProt P17597 56-670, looked up, variant M124I)
Acetolactate synthase, …: SSSPSSISAVLNTTTNVTTTPSPTKPTKPETFISRFAPDQPRKGADILVEALERQGVETVFAYPGGASIEIHQALTRSSSIRNVLPRHEQGGVFAAEGYARSSGKPGICIATSGPGATNLVSGLADALLDSVPLVAITGQVPRRMIGTDAFQETPIVEVTRSITKHNYLVMDVEDIPRIIEEAFFLATSGRPGPVLVDVPKDIQQQLAIPNWEQAMRLPGYMSRMPKPPEDSHLEQIVRLISESKKPVLYVGGGCLNSSDELGRFVELTGIPVASTLMGLGSYPCDDELSLHMLGMHGTVYANYAVEHSDLLLAFGVRFDDRVTGKLEAFASRAKIVHIDIDSAEIGKNKTPHVSVCGDVKLALQGMNKVLENRAEELKLDFGVWRNELNVQKQKFPLSFKTFGEAIPPQYAIKVLDELTDGKAIISTGVGQHQMWAAQFYNYKKPRQWLSSGGLGAMGFGLPAAIGASVANPDAIVVDIDGDGSFIMNVQELATIRVENLPVKVLLLNNQHLGMVMQWEDRFYKANRAHTFLGDPAQEDEIFPNMLLFAAACGIPAARVTKKADLREAIQTMLDTPGPYLLDVICPHQEHVLPMIPSGGTFNDVITEGDGRIKY
Q: With B2 as the molecule, how does the “Specific Activity” value (Arabidopsis AHAS protein [2]) read?
A: 102

Q: What about the “% Catalytic Activity as Compared to Wild Type” value (Arabidopsis AHAS protein [2]) of the same molecule?
A: 102%

Q: And the “resistance of enzymatic activity to imazethapyr (PURSUIT)” value (Arabidopsis AHAS protein [3])?
A: significant level of imidazolinone resistance

Q: What about the “resistance of transformed tobacco plants to spraying with imazethapyr” value (tobacco plants) of the same molecule?
A: resistant

B3: Met124His: Arabidopsis AHAS variant (and gene) with Met124His mutation, corresponding to maize Met53His; vector pJK003 (protein, UniProt P17597 56-670, looked up, variant M124H)
Acetolactate synthase, …: SSSPSSISAVLNTTTNVTTTPSPTKPTKPETFISRFAPDQPRKGADILVEALERQGVETVFAYPGGASHEIHQALTRSSSIRNVLPRHEQGGVFAAEGYARSSGKPGICIATSGPGATNLVSGLADALLDSVPLVAITGQVPRRMIGTDAFQETPIVEVTRSITKHNYLVMDVEDIPRIIEEAFFLATSGRPGPVLVDVPKDIQQQLAIPNWEQAMRLPGYMSRMPKPPEDSHLEQIVRLISESKKPVLYVGGGCLNSSDELGRFVELTGIPVASTLMGLGSYPCDDELSLHMLGMHGTVYANYAVEHSDLLLAFGVRFDDRVTGKLEAFASRAKIVHIDIDSAEIGKNKTPHVSVCGDVKLALQGMNKVLENRAEELKLDFGVWRNELNVQKQKFPLSFKTFGEAIPPQYAIKVLDELTDGKAIISTGVGQHQMWAAQFYNYKKPRQWLSSGGLGAMGFGLPAAIGASVANPDAIVVDIDGDGSFIMNVQELATIRVENLPVKVLLLNNQHLGMVMQWEDRFYKANRAHTFLGDPAQEDEIFPNMLLFAAACGIPAARVTKKADLREAIQTMLDTPGPYLLDVICPHQEHVLPMIPSGGTFNDVITEGDGRIKY
Q: For B3, which “Specific Activity” value (Arabidopsis AHAS protein [2]) is on record?
A: 42.5

Q: What about the “% Catalytic Activity as Compared to Wild Type” value (Arabidopsis AHAS protein [2]) of the same molecule?
A: 42.6%

Q: And the “resistance of enzymatic activity to imazethapyr (PURSUIT)” value (Arabidopsis AHAS protein [3])?
A: high degree of resistance
